Values quoted from earlier work in paper PMC6201748.

Molecular target: ZipA (Escherichia coli) (UniProt P77173)
Experiment: SPR

FtsZ, sequence (P0A9A6 whole entry): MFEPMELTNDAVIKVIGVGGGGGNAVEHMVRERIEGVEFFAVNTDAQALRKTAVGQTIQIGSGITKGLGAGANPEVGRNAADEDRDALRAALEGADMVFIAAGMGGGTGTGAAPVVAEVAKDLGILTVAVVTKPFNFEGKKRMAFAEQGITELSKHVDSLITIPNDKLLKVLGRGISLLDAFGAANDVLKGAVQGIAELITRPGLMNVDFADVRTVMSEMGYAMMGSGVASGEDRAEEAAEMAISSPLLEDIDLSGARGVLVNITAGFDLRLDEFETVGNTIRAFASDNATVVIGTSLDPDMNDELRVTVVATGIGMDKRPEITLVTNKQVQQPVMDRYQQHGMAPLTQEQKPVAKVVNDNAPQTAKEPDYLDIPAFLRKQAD

FtsZ (from UniProt P0A9A6)
Kd: 7 µM
